Data on 19 molecules can be found in US20200123233A1.

Numbering of substitutions follows the chain as printed. Values joined by “and” are separate entries in the source; they are usually repeats but may differ in a detail not shown here. Equal entries are not always repeated.

For assay [1], the target named is Rabies virus glycoprotein G, Challenge Virus Standard (CVS)-11 strain (Rabies virus, strain CVS-11 (genotype 1 Lyssavirus)) (UniProt O92284). The experiment in a line: cell-based or functional assay.
Assay [2] has as its target Rabies virus glycoprotein G, ERA strain (attenuated vaccine strain, ATCC VR332) (Rabies virus, ERA strain (genotype 1 lyssavirus)) (UniProt P03524). The experiment in a line: cell-based or functional assay.
Assay [3] has as its target Rabies virus glycoprotein G, strain CVS-11 (ATCC VR 959) (Rabies virus, strain CVS-11 (genotype 1)). The experiment in a line: cell-based or functional assay.
Assay [4] has as its target recombinant his-tagged HA0 trimer from H5N1 strain A/Anhui/1/2005 (Abcam, Cat. No. ab53938) (influenza A virus A/Anhui/1/2005 (H5N1)). The experiment in a line: ELISA on recombinant haemagglutinin, detection with rabbit anti-NANOBODY serum. (In general: In an ELISA, binding on a coated surface is turned into a signal by an enzyme label.)
The target of assay [5] is recombinant his6-tagged haemagglutinin HA1, Abcam ab53875. The assay is described as above.
The target of assay [6] is Recombinant his-tagged HA1 from H7N7 strain A/Chicken/Netherlands/01/03 (Abcam Cat. No. ab61286) (Influenza A virus A/Chicken/Netherlands/01/03 (H7N7)).

B1: LG213E6 (VHH)
VHH: EVQLVESGGGLVQAGASLRLSCAASGSTLSRYGVGWFRQAPGKERELVASVDWSGSRTYYADSVKGRFTISRDNAKNTGYLQMNSLKPDDTAVYYCAADSSVVPGIEKYDDWGLGTQVTVSS
In assay [1], B1 came in with a CVS-11 neutralizing antibody titer (RFFIT), IU/mg of 170 IU/mg; a CVS-11 neutralizing antibody titer (RFFIT), IU/ml of 112 IU/ml; a CVS-11 neutralizing antibody titer (RFFIT), IU/µM of 2.54 IU/µM; a CVS-11 neutralizing antibody titer (RFFIT), nM IC50 of 13.7 nM. In assay [2], this molecule showed an ERA neutralizing antibody titer (RFFIT): EU/mg of 155 EU/mg, an ERA neutralizing antibody titer (RFFIT): EU/ml of 288 EU/ml, an ERA neutralizing antibody titer (RFFIT): EU/µM of 2.31 EU/µM and an ERA neutralizing antibody titer (RFFIT): nM IC50 of 14.4 nM. In addition, in assay [3], the CVS neutralizing antibody titer: IU/mg was 65.8 IU/mg and 83.8 IU/mg and 98.3 IU/mg; the CVS neutralizing antibody titer: IU/ml was 98.6 IU/ml and 156 IU/ml and 183 IU/ml; the CVS neutralizing antibody titer: IU/µM is 0.98 IU/µM and 1.25 IU/µM and 1.47 IU/µM; the CVS neutralizing antibody titer: nM IC50 was 33.6 nM and 23.7 nM and 20.2 nM.

B2: LG213H7 (VHH)
VHH: EVQLVESGGGLVQAGGSLRLSCAASGRTLSSYRMGWFRQAPGKEREFISTISWNGRSTYYADSVKGRFIFSEDNAKNTVYLQMNSLKPEDTAVYYCAAALIGGYYSDVDAWSYWGPGTQVTVSS
For B2, in assay [1], the CVS-11 neutralizing antibody titer (RFFIT), IU/mg amounted to 12.2 IU/mg; the CVS-11 neutralizing antibody titer (RFFIT), IU/ml was 1.71 IU/ml; the CVS-11 neutralizing antibody titer (RFFIT), IU/µM was 0.18 IU/µM; the CVS-11 neutralizing antibody titer (RFFIT), nM IC50 is 191 nM. Also, in assay [2], the ERA neutralizing antibody titer (RFFIT): EU/mg was determined as 87.4 EU/mg, the ERA neutralizing antibody titer (RFFIT): EU/ml worked out at 12.2 EU/ml, the ERA neutralizing antibody titer (RFFIT): EU/µM came to 1.3 EU/µM and the ERA neutralizing antibody titer (RFFIT): nM IC50 was found to be 25.6 nM. In assay [3], the CVS neutralizing antibody titer: IU/mg was 30.1 IU/mg and 12.6 IU/mg; the CVS neutralizing antibody titer: IU/ml was 4.22 IU/ml and 1.76 IU/ml; the CVS neutralizing antibody titer: IU/µM was 0.45 IU/µM and 0.19 IU/µM; the CVS neutralizing antibody titer: nM IC50 was 62.5 nM and 156 nM.

B3: IV144 (VHH)
VHH: QVQLQQSGGGLVQAGGSLRLSCAASGNIISFNPMGWHRQAPGKQRELVASITSGGSISYVDSVKGRFTISRDSAKNTIYLQMNSLKPEDTAVYFCAGEGPRRRGSTWYTDTYWGQGTQVTVSS
With B3, the ELISA titer (NANOBODY concentration giving extinction 1) in assay [4] was 33.1 ng/mL; in assay [5], 34.8 ng/mL.

B4: IV155 (VHH)
VHH: QVQLQESGGGLVQAGGSLRLSCAASGRSLSRYAMGWFRQAPGKEREFVATKTSGGVTYYGASVKGRFTISRDNAKNMVYLQMNSLNPEDTAIYYCAAGTDAIFKPWMLPDYWGQGTQVTVSG
For the molecule B4, the ELISA titer (NANOBODY concentration giving extinction 1) in assay [4] and in assay [5] was more than 10000 ng/mL each time.

B5: LG214E8 (VHH)
VHH: EVQLVESGGGSVQAGGSLRLSCAASGGTFNPYVMAWFRQAPGNEREFVARIRWSGGDAYYDDSVKGRFAITRDAAKNTVHLQMNSLKPEDTAVYYCAAATYGYGSYTYGGSYDLWGQGTQVTVSS
Regarding B5, in assay [1], the CVS-11 neutralizing antibody titer (RFFIT), IU/mg came out at 9.37 IU/mg; the CVS-11 neutralizing antibody titer (RFFIT), IU/ml stood at 4.87 IU/ml; the CVS-11 neutralizing antibody titer (RFFIT), IU/µM worked out at 0.14 IU/µM; the CVS-11 neutralizing antibody titer (RFFIT), nM IC50 amounted to 249 nM. In assay [2], the ERA neutralizing antibody titer (RFFIT): EU/mg was less than 0.96 EU/mg, the ERA neutralizing antibody titer (RFFIT): EU/ml was less than 0.5 EU/ml, the ERA neutralizing antibody titer (RFFIT): EU/µM was less than 0.02 EU/µM and the ERA neutralizing antibody titer (RFFIT): nM IC50 is more than 3870 nM. Further, in assay [3], the CVS neutralizing antibody titer: IU/mg is 14.2 IU/mg and 10.1 IU/mg and 6.12 IU/mg; the CVS neutralizing antibody titer: IU/ml was 7.38 IU/ml and 5.26 IU/ml and 3.18 IU/ml; the CVS neutralizing antibody titer: IU/µM was 0.21 IU/µM and 0.15 IU/µM and 0.09 IU/µM; the CVS neutralizing antibody titer: nM IC50 is 124 nM and 196 nM and 323 nM.

B6: LG214H10 (VHH)
VHH: B5 VHH
In assay [1], B6 displayed a CVS-11 neutralizing antibody titer (RFFIT), IU/mg of 8.17 IU/mg; a CVS-11 neutralizing antibody titer (RFFIT), IU/ml of 11.4 IU/ml; a CVS-11 neutralizing antibody titer (RFFIT), IU/µM of 0.12 IU/µM; a CVS-11 neutralizing antibody titer (RFFIT), nM IC50 of 284 nM. In assay [3], the CVS neutralizing antibody titer: IU/mg was found to be 17.8 IU/mg, the CVS neutralizing antibody titer: IU/ml is 25 IU/ml, the CVS neutralizing antibody titer: IU/µM amounted to 0.27 IU/µM and the CVS neutralizing antibody titer: nM IC50 was found to be 111 nM.

B7: LG212B2 (VHH)
VHH: EMQLVESGGGLVQAGDSLRLSCAASGDTFSWYVMAWFRQAPGKEREFVTWINRSGASTYYADSVKGRFTIFRDNDKNTVYLQMNSLKPEDTAVYYCAAGGFYGLRTTEERYDTWGQGTQVTVSS
In the case of B7, in assay [1], the CVS-11 neutralizing antibody titer (RFFIT), IU/mg was 3.66 IU/mg; the CVS-11 neutralizing antibody titer (RFFIT), IU/ml was 2.6 IU/ml; the CVS-11 neutralizing antibody titer (RFFIT), IU/µM is 0.05 IU/µM; the CVS-11 neutralizing antibody titer (RFFIT), nM IC50 came to 634 nM. In assay [2], this molecule gave an ERA neutralizing antibody titer (RFFIT): EU/mg of 2.59 EU/mg, an ERA neutralizing antibody titer (RFFIT): EU/ml of 1.84 EU/ml, an ERA neutralizing antibody titer (RFFIT): EU/µM of 0.04 EU/µM and an ERA neutralizing antibody titer (RFFIT): nM IC50 of 865 nM.

B8: IV37 (yeast-produced NANOBODY (VHH sequence)) (VHH)
VHH: QVQLQESGGGLVQAGDSLRLSCAAPGRSFSGGAMSWFRQVPGKEREFVAAIRWSGGGIRYADSVKGRFTISRDNAKNTFYLQMNSLKPEDTAVYYCAIDPRADLVATMTSIRYWGQGTQVTVSS
Take B8: the ELISA titer (NANOBODY concentration giving extinction 1) in assay [6] was determined as 31.4 ng/mL.

B9: IV21 (yeast-produced NANOBODY (VHH sequence)) (VHH)
VHH: QVQLQQSGGGLVQAGGFLRLSCAASGRSFNTYAMGWFRQAPGKEREFVAGITRSGTATDYIDSVKGRFTISRDNARDTVYLQMNRLNPEDSAVYYCAAHANYDRMINSEYKYWGQGTQVTVSS
Regarding B9, in assay [6], the ELISA titer (NANOBODY concentration giving extinction 1) is 69 ng/mL.

B10: IV146 (VHH)
VHH: QVQLQQSGGGLVQAGGSLRLSCAASGSSFSINAMGWYRQAPGKQRELVAAISSGGSANYADSVKGRFTISRDNAKNTVYLQMNSLKPEDTAVYYCNAGSRFNPFGSAYDYWGQGTQVTVSS
Consider B10, for which the ELISA titer (NANOBODY concentration giving extinction 1) in assay [4] is 162 ng/mL; in assay [5] it was 62.9 ng/mL.

B11: IV133 (VHH)
VHH: QVQLQQSGGGLVQPGGSLRLSCAASSSGFSFNPMGWYRQAPGKQRELVATMTSGGTTNYADSVKGRFTISRDNAKTTVYLQMNSLKPEDTAVYYCNARGPRRATTGWITDDYWGQGTQVTVSS
Consider B11, for which the ELISA titer (NANOBODY concentration giving extinction 1) in assay [4] worked out at 39.1 ng/mL; in assay [5], 32.5 ng/mL.

B12: IV157 (VHH)
VHH: B11 VHH with S26R, G28D, F29I, M51I, T52S, S53N, R71Q, A97G, R102Y, I108Y
On to B12, for which the ELISA titer (NANOBODY concentration giving extinction 1) in assay [4] is 30.6 ng/mL; in assay [5] it was 9.9 ng/mL.

B13: IV156 (VHH)
VHH: B11 VHH with S26R, M51I, R71T, Y79F, A97G, A103G, T105A, I108F
In the case of B13, the ELISA titer (NANOBODY concentration giving extinction 1) in assay [4] was found to be 51.9 ng/mL; in assay [5], 33 ng/mL.

B14: IV1 (yeast-produced NANOBODY (VHH sequence)) (VHH)
VHH: QVQLQESGGGLVETGGSLRLSCAASGRTFGGYALAWFRQAPGKGREFVAAVTWTSGTTNYAGSVKDRFTVSRDNAGNTMYLQMNSLRPEDTAVYICGAASGYRSPDRLSEPNWVNYWGQGTQVTVSS
Turning to B14, in assay [6], the ELISA titer (NANOBODY concentration giving extinction 1) is 62.2 ng/mL.

B15: LG212G2 (VHH)
VHH: EVQLVESGGGLVQPGGSLRLSCAASGFTFGSHDMSWVRQAPGKGSEWVSGIKSGGGSTLYADSVKGRFAISRDNAKNTLYLQMNSLKPEDTAVYYCATDLYGSTWYPGEDRGTQVTVSS
In assay [1], B15 returned a CVS-11 neutralizing antibody titer (RFFIT), IU/mg of 9.31 IU/mg; a CVS-11 neutralizing antibody titer (RFFIT), IU/ml of 9.12 IU/ml; a CVS-11 neutralizing antibody titer (RFFIT), IU/µM of 0.14 IU/µM; a CVS-11 neutralizing antibody titer (RFFIT), nM IC50 of 250 nM. Besides, in assay [2], the ERA neutralizing antibody titer (RFFIT): EU/mg is less than 0.51 EU/mg, the ERA neutralizing antibody titer (RFFIT): EU/ml was less than 0.5 EU/ml, the ERA neutralizing antibody titer (RFFIT): EU/µM was less than 0.01 EU/µM and the ERA neutralizing antibody titer (RFFIT): nM IC50 is more than 7300 nM.

B16: IV29 (yeast-produced NANOBODY (VHH sequence)) (VHH)
VHH: QVQLQESGGGLVQAGGSLRLSCVASGRTLDNYAMGWFRQAPGAEREFVGAISANGEDTQYTESVQGRFTISKDNAKSTVYLDMNSLKPEDTAVYYCAADRKTLTYYTSRLRSRYEYWGQGTQVTVSS
B16: the ELISA titer (NANOBODY concentration giving extinction 1) in assay [6] was found to be 7.2 ng/mL.

B17: IV26 (yeast-produced NANOBODY (VHH sequence)) (VHH)
VHH: QVQLQESGGGLVRTGDSLRLSCAASGRTFNGYAMAWFRQAPGKGREFVAAVTWSSGTTNYAGSVKDRFTVSRDNANNTMYLQMNSLKPEDTAVYICGAASGYRSTDRLSDPAWTNYWGQGTQVTVSS
For the molecule B17, the ELISA titer (NANOBODY concentration giving extinction 1) in assay [6] was 80.6 ng/mL.

B18: IV154 (VHH)
VHH: QVQLQESGGGLVQAGGSLRLSCAASGRPFSSAAMGWFRQAPGKEREFVSAISYTGDVTRYADSVKGRFTISRDNTRNTLTLEMNSLKPEDTAVYYCAARTYAGVRAHTYDYDYWGQGTQVTVSS
B18: the ELISA titer (NANOBODY concentration giving extinction 1) in assay [4] and in assay [5] was more than 10000 ng/mL throughout.

B19: IV131 (VHH)
VHH: QVQLQQSGGGLVQAGGSLRLSCAASGSGFSFNPMGWYRQAPGKQRELVASITSGGTTNYVDSVKGRFTISRGNAKNTVYLQMNSLKPEDTAVYYCAAEGPRRRGSTWYTDNYWGQGTQVTVSS
Take B19: the results for the ELISA titer (NANOBODY concentration giving extinction 1) in assay [4] and in assay [5] were 36.8 ng/mL and 32 ng/mL, respectively.
